From patent US20210032339A1 (AMPHIVENA THERAPEUTICS, published 2021)
Residue numbers refer to the chain shown, from its start. Several values for one entry are separate records, joined by “and”; a condition that tells them apart may be missing. Equal entries are not always repeated.

B1: CD33/CD3 tandem diabody 19 (bispecific antibody)
chain: DIQMTQSPSSLSASVGDRVTITCRSSTGAVTTSNYANWVQQKPGKAPKALIGGTNKRAPGVPSRFSGSLIGDKATLTISSLQPEDFATYYCALWYSNLWVFGQGTKVEIKGGSGGSQVQLVQSGAEVKKPGASVKVSCKASGYTFTSYYMHWVRQAPGQGLEWMGIINPSGGSTSYAQKFQGRVTMTRDTSTSTVYMELSSLRSEDTAVYYCARDVVPAAIDYYGMDVWGQGTTVTVSSGGSGQSVLTQPPSASGTPGQRVTISCSGSSSNIGSNTVNWYQQLPGTAPKLLIYSDNQRPSGVPDRFSGSKSGSSASLAISGLQSDDEADYYCATWDDSLNGAVFGGGTKLTVLGGSGGSEVQLVESGGGLVQPGGSLRLSCAASGFTFSTYAMNWVRQAPGKGLEWVGRIRSKYNNYATYYADSVKDRFTISRDDSKNSLYLQMNSLKTEDTAVYYCARHGNFGNSYVSYFAYWGQGTLVTVSSAAAGSHHHHHH
B2: CD33/CD3 tandem diabody 22 (bispecific antibody)
chain: DIQMTQSPSSLSASVGDRVTITCRSSTGAVTTSNYANWVQQKPGKAPKALIGGTNKRAPGVPSRFSGSLIGDKATLTISSLQPEDFATYYCALWYSNLWVFGQGTKVEIKGGSGGSQVQLVQSGAEVKKPGSSVKVSCKASGGTFSSYGISWVRQAPGQGLEWMGGIIPIFGSAHYAQKFQGRVTITADESTSTAYMELSSLRSEDTAVYYCAREYYYDSSEWAFDIWGQGTLVTVSSGGSGQSVLTQPPSASGTPGQRVTISCSGSSSNIGSNTVKWYQQLPGTAPKLLIYSNNQRSSGVPDRFSGSKSGTSASLAISGLQSEDEADYYCAAWDDSLNGYVFGGGTKLTVLGGSGGSEVQLVESGGGLVQPGGSLRLSCAASGFTFSTYAMNWVRQAPGKGLEWVGRIRSKYNNYATYYADSVKDRFTISRDDSKNSLYLQMNSLKTEDTAVYYCARHGNFGNSYVSYFAYWGQGTLVTVSSAAAGSHHHHHH
notes: Non-covalent homodimer; also called TandAb 22
B3: CD33/CD3 tandem diabody 23 (bispecific antibody)
chain: B2 chain with A49G, D72T, K73D, A74F, Y469W
notes: Non-covalent homodimer; also called TandAb 23
B4: CD33/CD3 tandem diabody 12 (bispecific antibody)
chain: DIQMTQSPSSLSASVGDRVTITCRSSTGAVTTSNYANWVQQKPGKAPKALIGGTNKRAPGVPSRFSGSLIGDKATLTISSLQPEDFATYYCALWYSNLWVFGQGTKVEIKGGSGGSQVQLVQSGAEVKKPGASVKVSCKASGYTFTSYDINWVRQAPGQGLEWMGWMNPNSGNTGFAQKFQGRVTMTRDTSTSTVYMELSSLRSEDTAVYYCARDRAVTDYYYGMDVWGQGTLVTVSSGGSGQSVLTQPPSASGTPGQRVTISCSGSRSNIGSNTVNWYQQLPGTAPKLLIYGNNQRPSGVPDRFSGSKSGTSASLAISGLQSEDEADYYCATWDDSLIGWVFGGGTKLTVLGGSGGSEVQLVESGGGLVQPGGSLRLSCAASGFTFSTYAMNWVRQAPGKGLEWVGRIRSKYNNYATYYADSVKDRFTISRDDSKNSLYLQMNSLKTEDTAVYYCARHGNFGNSYVSYFAYWGQGTLVTVSSAAAGSHHHHHH
B5: CD33/CD3 tandem diabody 14 (bispecific antibody)
chain: B4 chain with V218N, Y221F, Y222S, T312S
B6: CD33/CD3 tandem diabody 16 (bispecific antibody)
chain: B4 chain with V218N, Y222S, Y223L

Tests used:
human CD33 [1] = biological target: T1, human CD33 (human, UniProt P20138 18-259); experiment: cell-based or functional assay
human CD3 [2] = biological target: T2, human CD3 (human, UniProt P07766 23-207); experiment: flow cytometry, T cells
T2 construct: whole, on cells; Multi-chain complex on cells; also called hu CD3

human CD33 [3] = biological target: T1, human CD33; experiment: flow cytometry, HL-60 cells
Procedure: (§1) Cells were incubated with 100 μL of serial dilutions of CD33/CD3 tandem diabodies. After washing three times with FACS buffer the cells were incubated with 0.1 mL of 10 μg/mL mouse monoclonal anti-His antibody in the same buffer for 45 min on ice. After a second washing cycle, the cells were incubated with 0.1 mL of 15 μg/mL FITC-conjugated goat anti-mouse IgG antibodies under the same conditions as before. As a control, cells were incubated with the anti-His IgG followed by the FITC-conjugated goat anti-mouse IgG antibodies without anti-CD33 tandem diabodies. […] The fluorescence of 1×10⁴ living cells was measured using a Beckman-Coulter FC500 MPL flow cytometer using the MXP software (Beckman-Coulter, Krefeld, Germany) or a Millipore Guava EasyCyte flow cytometer using the Incyte software (Merck Millipore, Schwalbach, Germany). Mean fluorescence intensities of the cell samples were calculated using CXP software (Beckman-Coulter, Krefeld, Germany) or Incyte software (Merck Millipore, Schwalbach, Germany). After subtracting the fluorescence intensity values of the cells stained with the secondary and tertiary reagents alone the values were used for calculation of the KD values with the equation for one-site binding (hyperbola) of the GraphPad Prism (version 6.00 for Windows, GraphPad Software, La Jolla Calif. USA). […]

human CD3 [4] = biological target: T2, human CD3; experiment: flow cytometry, human T-cells
human CD33 [5] = biological target: T1, human CD33; experiment: flow cytometry, U-937 cells
Procedure: as §1

human CD33 [6] = biological target: T1, human CD33; experiment: flow cytometry, HL-60 cells; remark: listed apart in the source
human CD33 [7] = biological target: T1, human CD33; experiment: cell-based or functional assay; remark: listed apart in the source
human CD33 [8] = biological target: T1, human CD33; experiment: flow cytometry, KG-1 cells
Procedure: as §1

human CD33 [9] = biological target: T1, human CD33; experiment: cell-based or functional assay; remark: listed apart in the source
human CD33 [10] = biological target: T1, human CD33; experiment: cell-based or functional assay; remark: listed apart in the source
human CD33 [11] = biological target: T1, human CD33; experiment: cell-based or functional assay; remark: listed apart in the source

T2 sequence (P07766 23-207): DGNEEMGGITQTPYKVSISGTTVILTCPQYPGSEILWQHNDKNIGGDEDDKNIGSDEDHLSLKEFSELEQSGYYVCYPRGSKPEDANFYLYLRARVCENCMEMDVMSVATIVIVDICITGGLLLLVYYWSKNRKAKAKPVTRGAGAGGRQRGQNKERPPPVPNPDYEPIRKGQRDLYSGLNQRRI
T1 sequence (P20138 18-259): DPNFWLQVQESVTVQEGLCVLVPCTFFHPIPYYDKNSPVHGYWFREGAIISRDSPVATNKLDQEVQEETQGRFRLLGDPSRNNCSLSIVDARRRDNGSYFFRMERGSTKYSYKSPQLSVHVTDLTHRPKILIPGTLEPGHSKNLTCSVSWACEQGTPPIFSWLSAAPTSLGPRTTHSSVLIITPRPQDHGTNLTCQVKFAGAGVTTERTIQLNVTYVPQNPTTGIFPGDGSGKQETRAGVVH

Binder	lysis of KG-1 cells, IC50 (human CD33 [1])	Kd (human CD3 [2]) [pM]	Kd (human CD33 [3]) [pM]	Kd (human CD3 [4]) [pM]	Kd (human CD33 [5]) [pM]	Kd (human CD33 [6]) [pM]	EC50 on HL-60 (cytotoxicity) (human CD33 [7]) [pM]	Kd (human CD33 [8]) [pM]	EC50 mean, cytotoxicity on BV-173 (human CD33 [9]) [pM]	EC50 mean, cytotoxicity on CHO-CD33 (human CD33 [9]) [pM]	EC50 mean, cytotoxicity on HL-60 (human CD33 [9]) [pM]	EC50 mean, cytotoxicity on K562 (human CD33 [9]) [pM]	EC50 mean, cytotoxicity on KASUMI-1 (human CD33 [9]) [pM]	EC50 mean, cytotoxicity on KG-1 (human CD33 [9]) [pM]	EC50 mean, cytotoxicity on RPMI-8226 (human CD33 [9]) [pM]	EC50 mean, cytotoxicity on THP-1 (human CD33 [9]) [pM]	EC50 mean, cytotoxicity on U-937 (human CD33 [9]) [pM]	further results
B1	~5 pM																	
B2		4100	700	4100	8600	700	3.2	2000										
B3		97200	400	97200	5100	400	2.8	1000										
B4	~0.01 pM								1.4	11.8	1.4	4.5	1.3	1	14	1.9	0.9	
B5							1.6											EC50, cytotoxicity on HL-60 (human CD33 [10]): 1.6 pM and 168 pg/mL; EC50, cytotoxicity on KG-1 (human CD33 [10]): 2.6 pM and 273 pg/mL; EC50, cytotoxicity on U-937 (human CD33 [10]): 3.6 pM and 378 pg/mL; EC50, cytotoxicity, mean of HL-60, U-937, KG-1 (human CD33 [10]): 2.6 pM and 273 pg/mL
B6	~0.5 pM and 5 pM								3.2	24	1.6	4.8	2.4	1.9	2.8	6	1.3	EC50, calcein-release cytotoxicity on HL-60, 30 min (human CD33 [11]): 4.8 pM; EC50, calcein-release cytotoxicity on HL-60, 60 min (human CD33 [11]): 2.5 pM; EC50, calcein-release cytotoxicity on HL-60, 120 min (human CD33 [11]): 1.6 pM; EC50, calcein-release cytotoxicity on HL-60, 180 min (human CD33 [11]): 1.6 pM; EC50, calcein-release cytotoxicity on HL-60, 240 min (human CD33 [11]): 1.5 pM; EC50, calcein-release cytotoxicity on HL-60, 300 min (human CD33 [11]): 1.6 pM
